The text below walks through data of patent US7223850 (RIGEL PHARMACEUTICALS, dated 2007).

The target in the assay is T1, HA-tagged RIP (UniProt Q13546 1-671, limits assumed).
T1 construct: also called HA-RIP; not shown: HA tag
T1 sequence (looked up): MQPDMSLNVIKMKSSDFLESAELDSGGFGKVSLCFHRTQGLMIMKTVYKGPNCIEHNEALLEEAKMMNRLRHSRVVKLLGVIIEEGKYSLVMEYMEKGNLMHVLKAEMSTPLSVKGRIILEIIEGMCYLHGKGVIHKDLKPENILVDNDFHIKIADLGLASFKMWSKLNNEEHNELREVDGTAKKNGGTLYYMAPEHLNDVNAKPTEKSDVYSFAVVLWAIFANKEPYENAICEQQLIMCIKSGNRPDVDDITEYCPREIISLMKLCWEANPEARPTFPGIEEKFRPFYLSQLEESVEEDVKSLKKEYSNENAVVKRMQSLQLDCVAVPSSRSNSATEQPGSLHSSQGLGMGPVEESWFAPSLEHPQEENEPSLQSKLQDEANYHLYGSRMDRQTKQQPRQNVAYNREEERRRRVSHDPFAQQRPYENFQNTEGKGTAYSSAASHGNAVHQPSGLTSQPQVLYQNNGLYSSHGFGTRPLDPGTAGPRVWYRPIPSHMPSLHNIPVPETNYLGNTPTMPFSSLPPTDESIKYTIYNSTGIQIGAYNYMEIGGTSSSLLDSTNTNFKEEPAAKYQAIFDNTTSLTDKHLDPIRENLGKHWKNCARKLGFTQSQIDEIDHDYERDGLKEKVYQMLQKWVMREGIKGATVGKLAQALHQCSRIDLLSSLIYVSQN
As to the kind of experiment: co-immunoprecipitation, HA-RIP and Flag-Apop3 mutant co-transfected in Phoenix-A (293 T) cells, anti-Flag immunoblot.

B1: Flag-tagged Apop3(1-196) (enzyme)
chain: MSCVKLWPSGAPAPLVSIEELENQELVGKDGFGTVFRAQHRKWGYDVAVKIVNSKAISREVKAMASLDNEFVLRLEGVIEKVNWDQDPKPALVTKFMENGSLSGLLQSQCPRPWPLLCRLLKEVVLGMFYLHDQNPVLLHRDLKPSNVLPDPELHVKLADFGLSTFQGGSQSGTGSGEPGGTLGYLAPELFVNVNR
notes: not shown: Flag tag
With B1, the binding result was “no binding”.

B2: Flag-tagged Apop3(287-518) (other)
chain: FQMVENNMNAAVSTVKDFLSQLKSSNRRFSIPESGQGGTEMDGFRRTIENQHSRNDVMVSEWLNKLNLEEPPSSVPKKCPSLTKRSRAQEEQVPQAWTAGTSSDSMAQPPQTPETSTFRNQMPSPTSTGTPSPGPRGNQGAERQGMNWSCRTPEPNPVTGRPLVNIYNCSGVQVGDNNYLTMQQTTALPTWGLAPSGKGRGLQHPPPVGSQEGPKDPEAWSRPQGWYNHSGK
notes: not shown: Flag tag
Turning to B2, the binding result is reported as “no binding”.

B3: Flag-tagged Apop3(1-251) (enzyme)
chain: MSCVKLWPSGAPAPLVSIEELENQELVGKDGFGTVFRAQHRKWGYDVAVKIVNSKAISREVKAMASLDNEFVLRLEGVIEKVNWDQDPKPALVTKFMENGSLSGLLQSQCPRPWPLLCRLLKEVVLGMFYLHDQNPVLLHRDLKPSNVLPDPELHVKLADFGLSTFQGGSQSGTGSGEPGGTLGYLAPELFVNVNRKASTASDVYSFGILMWAVLAGREVELPTEPSLVYEAVCNRQNRPSLAELPQAGPE
notes: not shown: Flag tag
As for B3, the binding result is recorded as “no binding”.
